{"source": "paper doi:10.1101/2024.07.05.601840v1", "proteins": {"B1": {"name": "ACR (Saci_1104) (Sulfolobus acidocaldarius DSM 639) (protein)", "chain": "MYSLKDKVVVVTGSGRGIGRAIALRLAQEGSKIVVNAKKRAEEVNETVEMVKKIGGDAVGVLADVGTKEGCETLLKSTLDKFGVVDILVNNAGLGLFSLFMNADDKLIEKHISVDFKSVVYCSQAFAREMREGGEIVNIASIAGVLPAYGLSMYGAMKGAVISLTKYMALELAPKIRVNAIAPGWVKTKLGESMYKLLNMSEKEFVEKTTLMGKMLEPEDIAEFVTAILKIEGLTGQVFVVDAGESIKRGIA"}}, "assay_in_all_cases": "purified protein", "key": {"purified protein [1]": {"substrate": "NC(=O)C1=CN([C@@H]2O[C@H](COP(=O)(O)OP(=O)(O)OC[C@H]3O[C@@H](n4cnc5c(N)ncnc54)[C@H](OP(=O)(O)O)[C@@H]3O)[C@@H](O)[C@H]2O)C=CC1", "details": "0.3 mM AcAcCoA, pH 7 TRIS-HCl, 35°C, varied: cofactor"}, "purified protein [2]": {"substrate": "C[C@@H](O)CC(=O)SCCNC(=O)CCNC(=O)[C@H](O)C(C)(C)COP(=O)(O)OP(=O)(O)OC[C@H]1O[C@@H](n2cnc3c(N)ncnc32)[C@H](O)[C@@H]1OP(=O)(O)O", "details": "oxidative direction, 2 mM NADP+, pH 7 TRIS-HCl, 70°C"}, "purified protein [3]": {"substrate": "CC(=O)CC(=O)SCCNC(=O)CCNC(=O)[C@H](O)C(C)(C)COP(=O)(O)OP(=O)(O)OC[C@H]1O[C@@H](n2cnc3c(N)ncnc32)[C@H](O)[C@@H]1OP(=O)(O)O", "details": "0.2 mM NADPH, pH 7 TRIS-HCl, 35°C"}}, "data": [{"protein": "B1", "values": [{"measurement": "Km", "setting": "purified protein [1]", "value": "24 ± 3", "unit": "µM"}, {"measurement": "Km", "setting": "purified protein [2]", "value": "160 ± 12", "unit": "µM"}, {"measurement": "kcat", "setting": "purified protein [2]", "value": 0.435, "unit": "s⁻¹"}, {"measurement": "Km", "setting": "purified protein [3]", "value": "77 ± 9", "unit": "µM"}, {"measurement": "kcat", "setting": "purified protein [3]", "value": 0.586, "unit": "s⁻¹"}]}]}
